We go through one substance from article PMC8428401.

The target in this test is AAVhum.8 capsid (adeno-associated virus 8 (nonhuman primate isolate)) (UniProt Q8JQF8). The test can be described thus: cryo-EM structure; purified AAVhum.8 vectors vitrified on Quantifoil grids; Titan Krios 300 kV; capsid reconstructed in cisTEM; 60-mer VP3 model refined against the map.

By stoichiometry N is commonly meant a count of units in the complex or per binding partner.

As for “AAVhum.8 capsid (from UniProt Q8JQF8 218-738) (complex)”, the stoichiometry N was 60.
